Laboratory results published in US20170355774A1 (Regeneron, published 2017).

B1: H4H14508P (antibody, human IgG4, V domains shown)
VH: QVQLVESGGGVVQPGRSLRLSCAASGLTVSSYVMHWVRQAPGKGLEWVAIIWYDGSNKYYGDSVKGRFTISRDNSKKTLYLQMNSLRAEDTAVYYCARGRPLSSSSSDYYGLDVWGQGTTVTVSS
VL: AIQMTQSPSSLSASVGDRVTIICRASQGIRNDLGWYQQKPGKAPNLLIYAASSLQSGVPSRFSGSGSGTDFTLTISSLQPEDFATYYCLQDYNYPWTFGQGTKVEIK
notes: human IgG4 (H4H)
B2: H4H14521P (antibody, human IgG4, V domains shown)
VH: EVQLVESGGGLVQPGGSLRLSCAASGFTFRVYEMNWVRQAPGKGLEWISYIGSSGFTIYYADSVKGRFTISRDNAKNSLFLQLNSLRAEDTAVYYCARGWNDGVPNYLGMDVWGQGTTVTVSS
VL: DIQMTQSPSSLSASVGDRVTITCQASQDINKYLNWYQQKPGKAPKLLIYDASNLETGVPSRFSGSGSGTDFTFTISSLQPEDIARYHCQQYDKIPLTFGGGTKVEIK
notes: human IgG4 (H4H)

Experiments:
hGITR.mmh = biological target: T1, hGITR.mmh (human); experiment: SPR 37C, mAb capture
T1 construct: soluble monomeric construct; also called human (h) GITR.mmh; monomeric human GITR
T1 chain: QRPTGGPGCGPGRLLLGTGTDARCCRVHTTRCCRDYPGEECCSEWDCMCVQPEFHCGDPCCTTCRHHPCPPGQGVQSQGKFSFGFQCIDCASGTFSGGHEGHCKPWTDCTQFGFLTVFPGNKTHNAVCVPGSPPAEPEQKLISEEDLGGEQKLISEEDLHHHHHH
Procedure: (§1) (Table 3). […] GITR proteins were injected over the sensor surface at a flow rate of 30 μL/minute. All Biacore binding studies were performed in a buffer composed of 0.01M HEPES pH 7.4, 0.15M NaCl, 3 mM EDTA, 0.05% v/v Surfactant P20 (HBS-ET running buffer). Antibody-reagent association was monitored for 4 minutes while dissociation in HBS-ET running buffer (10 mM HEPES, 150 mM NaCl, 3 mM EDTA, 0.05% (v/v) Surfactant P20, pH 7.4) was monitored for 10 minutes. Kinetic association (kₐ) and dissociation (kd) rate constants were determined by fitting the real-time sensorgrams to a 1:1 binding model using Scrubber 2.0c curve fitting software. Binding dissociation equilibrium constants (KD) and dissociative half-lives (t ½) were calculated from the kinetic rate constants as: KD [M]=kd/kₐ; and t_{1/2}(min)=(ln 2/(60*kd). Results are summarized in Table 3.

hGITR.mFc = biological target: T2, hGITR.mFc (human); experiment: SPR 37C, mAb capture
T2 construct: soluble dimeric construct with mouse Fc; also called dimeric human GITR
T2 chain: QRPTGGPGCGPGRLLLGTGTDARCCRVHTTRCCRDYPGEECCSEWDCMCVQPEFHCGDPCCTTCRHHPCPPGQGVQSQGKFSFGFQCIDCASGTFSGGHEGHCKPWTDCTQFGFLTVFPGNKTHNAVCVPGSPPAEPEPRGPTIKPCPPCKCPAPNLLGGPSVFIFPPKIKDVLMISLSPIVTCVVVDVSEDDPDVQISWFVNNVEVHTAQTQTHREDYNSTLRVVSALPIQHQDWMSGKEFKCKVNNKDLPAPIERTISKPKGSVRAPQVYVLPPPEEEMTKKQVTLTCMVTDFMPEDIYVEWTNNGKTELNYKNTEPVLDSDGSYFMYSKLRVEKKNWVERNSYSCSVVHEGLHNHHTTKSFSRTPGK
Procedure: as §1

mfGITR.mmh = biological target: T3, mfGITR.mmh (Macaca fasicularis); experiment: SPR 37C, mAb capture
T3 construct: soluble monomeric construct; also called Macaca fasicularis (mf) GITR.mmh; cynomolgus GITR protein
T3 chain: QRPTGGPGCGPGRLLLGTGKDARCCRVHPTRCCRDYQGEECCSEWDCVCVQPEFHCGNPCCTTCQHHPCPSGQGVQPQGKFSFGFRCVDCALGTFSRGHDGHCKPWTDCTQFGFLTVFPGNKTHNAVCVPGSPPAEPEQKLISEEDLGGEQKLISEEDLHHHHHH
Procedure: as §1

[1] = biological target: T4, human GITR (amino acids M1-V241, NCBI Accession #NP_004186.1) expressed on cells (human, UniProt Q9Y5U5 26-241); experiment: cell-based or functional assay
T4 sequence: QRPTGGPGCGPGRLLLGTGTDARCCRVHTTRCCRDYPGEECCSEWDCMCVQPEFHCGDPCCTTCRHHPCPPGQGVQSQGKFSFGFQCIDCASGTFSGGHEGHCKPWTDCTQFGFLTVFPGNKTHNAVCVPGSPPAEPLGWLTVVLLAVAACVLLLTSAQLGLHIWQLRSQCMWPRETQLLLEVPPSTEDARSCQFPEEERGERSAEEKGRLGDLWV

[2] = biological target: T4, human GITR (amino acids M1-V241, NCBI …); experiment: cell-based or functional assay; remark: listed apart in the source
[3] = biological target: T4, human GITR (amino acids M1-V241, NCBI …); experiment: cell-based or functional assay; remark: listed apart in the source
[4] = biological target: T4, human GITR (amino acids M1-V241, NCBI …); experiment: cell-based or functional assay; remark: listed apart in the source
[5] = biological target: T4, human GITR (amino acids M1-V241, NCBI …); experiment: ECL cell binding, hGITR/HEK293-D9
Procedure: Nonspecific binding sites were blocked with 2% BSA (w/v)+PBS for 1 h at room temperature (RT). Next, serial dilutions of anti-GITR antibodies, ranging from 1.7 pM to 100 nM, were added to cells for 1 h at RT. Plates were then washed to remove unbound antibodies (AquaMax2000 plate washer, MSD Analytical Technologies) and plate-bound antibodies were detected with a SULFO-TAG™ conjugated anti-human kappa light chain IgG antibody (Jackson Immunoresearch) for 1 h at RT.
Following washes, luminescent signals were recorded with a SECTOR Imager 6000 (MSD) instrument. Direct binding signals (relative light units, RLU) were analyzed as a function of the antibody concentration and data were fitted with a sigmoidal (four-parameter logistic) dose-response model using GraphPad Prism™ software. […] The signal detected with 100 nM antibody binding to the hGITR expressing cells versus parental cells was recorded as an indication of intensity and specificity of GITR binding.

Binder	Kd (hGITR.mmh)	koff (hGITR.mmh)	kon (hGITR.mmh)	t½ (hGITR.mmh)	Kd (hGITR.mFc)	koff (hGITR.mFc)	kon (hGITR.mFc)	t½ (hGITR.mFc)	Kd (mfGITR.mmh)	koff (mfGITR.mmh)	kon (mfGITR.mmh)	t½ (mfGITR.mmh)	% Activation, NF-kB-Luc, non-anchored [1]	% Blocking, NF-kB-Luc, non-anchored [1]	EC50, hGITR activation, NF-kB-Luc, non-anchored [1]	IC50, blocking of hGITRL stimulation, NF-kB-Luc, non-anchored [1]	fold activation, T-cell proliferation, plate-bound Ab 10.6 nM, donor 1 [2]	fold activation, T-cell proliferation, plate-bound Ab 10.6 nM, donor 2 [2]	fold activation, T-cell proliferation, plate-bound Ab 10.6 nM, donor 3 [2]	fold activation, T-cell proliferation, plate-bound Ab 10.6 nM, donor 4 [2]	also measured
B1	36.6 nM	0.00935 s⁻¹	255000 M⁻¹ s⁻¹	1.2 min	0.597 nM	0.000719 s⁻¹	1.21e+06 M⁻¹ s⁻¹	16.1 min	39.3 nM	0.00507 s⁻¹	129000 M⁻¹ s⁻¹	2.3 min	30%	40%	1.2 nM	0.9 nM	10 fold	4 fold	4 fold	7 fold	fold activation, T-cell proliferation, plate-bound Ab 10.6 nM, donor 5 [2]: 4 fold; fold activation, T-cell proliferation, plate-bound Ab 10.6 nM, donor 6 [2]: 11 fold; fold activation, T-cell proliferation, plate-bound Ab 10.6 nM, donor 7 [2]: 3 fold; fold activation, T-cell proliferation, plate-bound Ab 10.6 nM, donor 8 [2]: 2 fold; fold activation, T-cell proliferation, plate-bound Ab 10.6 nM, mean [2]: 5 fold; fold activation, T-cell proliferation, 33 nM, FcgR anchored, donor 1 [3]: 1 fold; fold activation, T-cell proliferation, 33 nM, FcgR anchored, donor 2 [3]: 0.7 fold; fold activation, T-cell proliferation, 33 nM, FcgR anchored, donor 3 [3]: 1.1 fold; fold activation, T-cell proliferation, 33 nM, FcgR anchored, donor 4 [3]: 1.8 fold; fold activation, T-cell proliferation, 33 nM, FcgR anchored, donor 5 [3]: 1.3 fold; fold activation, T-cell proliferation, 33 nM, FcgR anchored, mean [3]: 1.2 fold; fold activation, T-cell proliferation, 22 nM, non-anchored, donor 1 [4]: 0.7 fold; fold activation, T-cell proliferation, 22 nM, non-anchored, donor 2 [4]: 0.9 fold; fold activation, T-cell proliferation, 22 nM, non-anchored, donor 3 [4]: 0.9 fold; fold activation, T-cell proliferation, 22 nM, non-anchored, donor 4 [4]: 1.4 fold; fold activation, T-cell proliferation, 22 nM, non-anchored, mean [4]: 1 fold; Average Signal (RLU) at 100 nM [5]: 6870 RLU; EC50 [5]: 0.45 nM
B2	22.7 nM	0.00784 s⁻¹	345000 M⁻¹ s⁻¹	1.5 min	0.389 nM	0.000479 s⁻¹	1.23e+06 M⁻¹ s⁻¹	24.1 min	20.1 nM	0.00334 s⁻¹	166000 M⁻¹ s⁻¹	3.5 min	50%	60%	0.4 nM	3.8 nM	1 fold	4 fold	4 fold	5 fold	fold activation, T-cell proliferation, plate-bound Ab 10.6 nM, donor 5 [2]: 4 fold; fold activation, T-cell proliferation, plate-bound Ab 10.6 nM, donor 6 [2]: 12 fold; fold activation, T-cell proliferation, plate-bound Ab 10.6 nM, donor 7 [2]: 3 fold; fold activation, T-cell proliferation, plate-bound Ab 10.6 nM, donor 8 [2]: 2 fold; fold activation, T-cell proliferation, plate-bound Ab 10.6 nM, mean [2]: 4 fold; fold activation, T-cell proliferation, 33 nM, FcgR anchored, donor 1 [3]: 1.5 fold; fold activation, T-cell proliferation, 33 nM, FcgR anchored, donor 2 [3]: 1.1 fold; fold activation, T-cell proliferation, 33 nM, FcgR anchored, donor 3 [3]: 1.1 fold; fold activation, T-cell proliferation, 33 nM, FcgR anchored, donor 4 [3]: 1.7 fold; fold activation, T-cell proliferation, 33 nM, FcgR anchored, donor 5 [3]: 0.9 fold; fold activation, T-cell proliferation, 33 nM, FcgR anchored, mean [3]: 1.2 fold; fold activation, T-cell proliferation, 22 nM, non-anchored, donor 1 [4]: 0.5 fold; fold activation, T-cell proliferation, 22 nM, non-anchored, donor 2 [4]: 1.2 fold; fold activation, T-cell proliferation, 22 nM, non-anchored, donor 3 [4]: 0.8 fold; fold activation, T-cell proliferation, 22 nM, non-anchored, donor 4 [4]: 1 fold; fold activation, T-cell proliferation, 22 nM, non-anchored, mean [4]: 0.9 fold; Average Signal (RLU) at 100 nM [5]: 10100 RLU; EC50 [5]: 0.43 nM
